Assay results published in US20160186238A1.

Target: trypsin (bovine) (UniProt P00760)
Assay: trypsin activity inhibition, fluorogenic substrate Z-Arg-AMC, fit of activity vs inhibitor concentration

Chain of trypsin (bovine) (P00760 24-246): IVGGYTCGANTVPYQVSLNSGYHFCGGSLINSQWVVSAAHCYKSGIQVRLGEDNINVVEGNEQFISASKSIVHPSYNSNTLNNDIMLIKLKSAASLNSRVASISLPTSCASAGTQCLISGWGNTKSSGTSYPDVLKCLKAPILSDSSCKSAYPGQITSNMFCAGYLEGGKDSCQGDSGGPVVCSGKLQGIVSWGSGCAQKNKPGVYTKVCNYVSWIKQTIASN

antipain (peptide)
Ki: 39.5 nM
